Measured values taken from the nanobody polyreactivity screen of Harvey et al. (2022).

Experiment: yeast display, Sf9 membrane polyspecificity reagent, FACS + sequencing; frameworks hold sequencing errors
How it was run: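 Nanobodies from a synthetic yeast display library (Saccharomyces cerevisiae BJ5465), induced 36–48 hours with galactose, were stained 1 hour at 4 °C with 10% biotinylated, detergent-solubilized Sf9 membrane reagent, enriched on streptavidin microbeads, then FACS-sorted. Anti-HA (expression) and streptavidin (reagent binding) fluorescence set low and high (top ~1%) gates. Polyreactivity labels come from the gate of origin. Genes were colony-PCR amplified, MiSeq 2 × 250 sequenced and filtered by CDR length.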

Sequence | polyreactivity (PSR sort gate)
QVQLVDSGGGLVQAGGSLRLSCAASGRIFYPYAMGWYREATGKERELVAAMTRRTASTYYADSVKGRFTISRDNAKNTVYLQMNSLKPQDTAVYYCAAVSYLKRPYYAGYYYWGQGTQVTVSS | high polyreactivity
QVQLVESGGGLVQAGGSLRLSCAASGRTFTYYAMGWYRQAPGKERELVAAISSRGGSTYYADSVKGRFTISRDNAKNTVYLQMNSLNPEDTAVYYCAAVHRFTRASRWPDFDYWGQGTQVTVSS | high polyreactivity
QVQLVESGGGLVQAGGSLRLSCAASGIIFFWNAMGWYRQAPGKERELVAAISSGGSTFADSVKGRFTISRDNAKNTVYLQMNSLKPEDTAVYYCAARFYHGYRPYIAIYGYGYWGQGTQVTVSS | low polyreactivity
QVQLVESGGGLVQAGGSLRLSCAASGFTFYKNTMGWYRQAPGNERELVAAISYRGGTYYADSVKGRFTISRDNAKTTVYLQMNSLKPEDTAVYYCNARYRGKYSSYGFWGHGTQVTVSS | high polyreactivity
QVQLVESGGGLDQAGGSLRLSCAASGFIFGPNAMGWYRQAPGKERELVAAISWIGSSTYYADSVKGRFTISRDNAKNTVYIKMNSLTPEDTPVYYCAADSSERRLLDFDYWGQGTQVTVSS | low polyreactivity
QVQLVESVGGLVQAGGSLRLSCAASGSTFLVYAMGWYRQAPGKERELVAAITQIDGSTYYADSVKGRFTISRDNAKNTVYLQMNSLKPEDTAVYYCAARYFWTYEYDYWGQGTQVTVSS | low polyreactivity
QVQIVESGGGLVQAGGSLRLSCAASGSISVANAMGWYRQAPGKDRELVAAITDSGDDTYYADSVKGRFTISRDIAKNTVYLQMNSLKPEDTAVYYCAVEAWSVPPYDYWGQGTQVTVSS | low polyreactivity
QVQLVESGGGLVQAGGSLRLSCAASGRTLPSYAMGWYRQAPGKERELVAAITGSGGRTYYADSVKGRFTISRDNAKNTVYLQMNSLKPEDTAVYYCAARQDDYGKINYYWGQGTQVTVSS | high polyreactivity
QVQHVESGGGLVQAGGSLRLSCAASGRTFARYTMGWYRQAPGKERELVAVISRSGGSTYYADSVKGRFTISRDNAKNSVYLQMNSVKPEDTAVYYCAAGDFVVSTLEYYYWGQGTQVTVSS | high polyreactivity
QVQLVESGGGLVQAGGSLRLSCAASGFIFRWYAMGWYRQAPGKERELVAAISRSGDSTYYADSVKGRFTISRDNAKNTVYLQKNSLKPEDTAVYYCAADDRYYTYGYDYWGQGTQVTVSS | low polyreactivity
QVQLVESGGGLVQAGGSLRLSCAASGSIFNYYAMGWYRQAPGKERELVAAITTSGGRTYYADSVKGRFTISRDNAKNTVYLQMNSLKPEDTAVYYCAARGYGRRAYVYRYDYWGQGTQVTVSS | high polyreactivity
HVQLVESGGGLVQAGGSLRLSCAASGRTFGIYAMGWYRKAPGKERELVAAITGRGGSTHYADSVKGRFTISRDNAKNTVYLQMNSLKPEDTAVYYCAADYRYNRGITSNKDYDYWGQGTQVTVSS | low polyreactivity
QVQLVESGGGLVQAGGSLRLSCAGSGSIFSNNAMGWYRQAPGKERELVAAISASGGSTYYADSVKGRFTISRDNAKNTVYLQMNSLKPEDTAVYYCAARGYGWGQGTQVTVSS | high polyreactivity
QVQLVESGGGLVQAGGSLLLSCAASGRIFSYNAMGWYRQAPGKERELVAVISRSDTSTYYADSVKGRFTISRDNAKNTVYLQMNSLKPEDTAVYYCNADGPSYFRYSGYYYWGQGTQVTVSS | low polyreactivity
QVQLVESGGGLGQAGGSLRLSCAASGRTFYIYAMGWYRQAPGKERELVAANTWSTGGTYYADSVKGRFTISRDNAKNTVYLQMNSLKPEDTAVYYCAAGYDYKSTRHYYWGQGTQVTVSS | high polyreactivity
QVQLVESGGGLVQAGGSLRLSCAASGRIFATNAMGWSRPAPGTERELVAGISDGGGSTYYAASVKGRFTISRDNAKNTVYLQMNRLKPEDTEVYYCAARVLDWRGDIHDSEYWGQGTQVTVSS | low polyreactivity
QVQLVESGGGLVQAGGSLRLSCAASGSIIRGYAIGWFRPAPGKERELVAAITSSGGSTYYADSVKGRFTISRDNAKNTVYLQMNSLKPEETAVYYCTKYRYSYKYNYWGQGTQVTVSS | high polyreactivity
